Reference: publication PMC4477937
Where two headings read alike, the source gives them in different places.

What was measured:
TNF-α (Homo sapiens) [1] = target: TNF-α (Homo sapiens) (UniProt P01375); conditions: cited from earlier work
TGF-β1 (Homo sapiens) [2] = target: TGF-β1 (Homo sapiens) (UniProt P01137); conditions: cited from earlier work
TGF-β2 (Homo sapiens) [3] = target: TGF-β2 (Homo sapiens) (UniProt P61812); conditions: cited from earlier work
TGF-β2 (Homo sapiens) [4] = target: TGF-β2 (Homo sapiens) (UniProt P61812); conditions: cited from earlier work; remark: listed apart in the source
TNF-α (Homo sapiens) [5] = target: TNF-α (Homo sapiens) (UniProt P01375); conditions: cited from earlier work; remark: listed apart in the source
TGF-β1 (Homo sapiens) [6] = target: TGF-β1 (Homo sapiens) (UniProt P01137); conditions: cited from earlier work; remark: listed apart in the source
[7] = target: lipoprotein receptors (on SH-SY5Y cells) (human (endogenous in SH-SY5Y)); experiment: flow cytometry on cells; SH-SY5Y cells detached with EDTA, in Hank's binding buffer, steps of 30 min at 4°C: RAP (8 μM) or buffer alone, then α2M (100 nM), rabbit anti-α2M, anti-rabbit IgG-FITC; viable cells gated by propidium iodide; α2M preparations stored at 4°C or -20°C for 10 days

Chain of alpha-2-macroglobulin (transformed, α2M*) (P01023 24-1474): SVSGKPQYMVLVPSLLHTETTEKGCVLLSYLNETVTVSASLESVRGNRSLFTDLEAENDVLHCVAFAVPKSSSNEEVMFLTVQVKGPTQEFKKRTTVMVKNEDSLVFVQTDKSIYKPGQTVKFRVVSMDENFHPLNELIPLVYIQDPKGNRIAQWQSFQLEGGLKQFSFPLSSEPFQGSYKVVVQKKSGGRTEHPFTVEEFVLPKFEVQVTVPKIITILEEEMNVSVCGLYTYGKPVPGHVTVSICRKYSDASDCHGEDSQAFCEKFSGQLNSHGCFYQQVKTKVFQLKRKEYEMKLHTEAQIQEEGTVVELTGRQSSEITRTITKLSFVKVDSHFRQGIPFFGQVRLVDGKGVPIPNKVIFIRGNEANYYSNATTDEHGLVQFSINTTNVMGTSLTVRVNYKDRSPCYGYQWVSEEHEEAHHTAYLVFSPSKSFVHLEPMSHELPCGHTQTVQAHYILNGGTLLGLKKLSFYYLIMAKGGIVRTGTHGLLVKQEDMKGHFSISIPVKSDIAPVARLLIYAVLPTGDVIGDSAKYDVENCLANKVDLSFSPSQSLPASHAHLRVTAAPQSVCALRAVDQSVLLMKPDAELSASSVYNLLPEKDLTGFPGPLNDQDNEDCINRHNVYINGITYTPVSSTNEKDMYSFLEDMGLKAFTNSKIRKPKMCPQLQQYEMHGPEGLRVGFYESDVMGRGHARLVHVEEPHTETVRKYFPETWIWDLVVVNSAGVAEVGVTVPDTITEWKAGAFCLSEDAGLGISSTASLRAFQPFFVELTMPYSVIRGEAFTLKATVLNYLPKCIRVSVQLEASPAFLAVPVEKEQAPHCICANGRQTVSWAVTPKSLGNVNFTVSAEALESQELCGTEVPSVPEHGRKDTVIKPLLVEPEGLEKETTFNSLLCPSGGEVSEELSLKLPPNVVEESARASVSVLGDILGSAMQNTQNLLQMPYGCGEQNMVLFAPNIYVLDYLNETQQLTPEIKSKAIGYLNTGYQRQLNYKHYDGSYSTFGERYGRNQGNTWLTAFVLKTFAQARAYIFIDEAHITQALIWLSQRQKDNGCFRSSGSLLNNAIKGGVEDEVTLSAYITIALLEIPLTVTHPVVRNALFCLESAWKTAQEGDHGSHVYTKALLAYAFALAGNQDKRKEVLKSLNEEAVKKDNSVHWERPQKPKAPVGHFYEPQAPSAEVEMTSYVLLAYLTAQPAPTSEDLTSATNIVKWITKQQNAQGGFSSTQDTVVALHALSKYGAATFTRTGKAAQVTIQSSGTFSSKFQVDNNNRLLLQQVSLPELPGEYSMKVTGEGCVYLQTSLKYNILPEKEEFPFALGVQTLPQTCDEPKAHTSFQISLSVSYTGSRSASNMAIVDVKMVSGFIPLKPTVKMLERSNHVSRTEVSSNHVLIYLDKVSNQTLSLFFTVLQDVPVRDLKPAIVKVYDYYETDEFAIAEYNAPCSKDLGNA
Chain of alpha-2-macroglobulin (native) (P01023 24-1474): as above
Chain of glutathione-S-transferase-RAP (receptor-associated protein) (P30533 35-357): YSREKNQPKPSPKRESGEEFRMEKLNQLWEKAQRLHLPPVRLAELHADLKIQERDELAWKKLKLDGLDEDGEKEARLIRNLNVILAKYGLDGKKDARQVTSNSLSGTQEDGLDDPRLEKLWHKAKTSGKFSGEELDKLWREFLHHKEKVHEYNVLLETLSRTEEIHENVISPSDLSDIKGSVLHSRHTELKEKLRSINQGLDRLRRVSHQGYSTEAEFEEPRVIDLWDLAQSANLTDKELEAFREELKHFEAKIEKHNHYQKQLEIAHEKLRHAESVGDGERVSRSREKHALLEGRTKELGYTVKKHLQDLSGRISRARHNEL
Chain of TGF-β2 (Homo sapiens) (P61812 303-414): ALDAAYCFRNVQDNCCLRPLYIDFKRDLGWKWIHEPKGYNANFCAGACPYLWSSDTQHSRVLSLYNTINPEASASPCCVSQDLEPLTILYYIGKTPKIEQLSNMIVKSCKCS
Chain of TNF-α (Homo sapiens) (P01375 77-233): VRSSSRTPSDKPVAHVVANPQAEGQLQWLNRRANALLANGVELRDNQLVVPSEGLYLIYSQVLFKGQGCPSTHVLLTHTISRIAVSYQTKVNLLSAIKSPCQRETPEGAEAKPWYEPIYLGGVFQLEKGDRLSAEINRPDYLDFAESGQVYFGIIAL
Chain of TGF-β1 (Homo sapiens) (P01137 279-390): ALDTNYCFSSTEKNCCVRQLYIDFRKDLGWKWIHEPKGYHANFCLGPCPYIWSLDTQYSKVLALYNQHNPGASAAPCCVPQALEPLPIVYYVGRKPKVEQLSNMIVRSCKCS

For “alpha-2-macroglobulin (native) (from UniProt P01023)”, the Kd (TNF-α (Homo sapiens) [1]) is given as greater than 1.27 µM, the Kd (TGF-β1 (Homo sapiens) [2]) is given as 0.33 µM and the Kd (TGF-β2 (Homo sapiens) [3]) is given as 0.011 µM.
In the case of “alpha-2-macroglobulin (transformed, α2M*) (from UniProt P01023)”, the Kd (TGF-β2 (Homo sapiens) [4]) is given as 0.013 µM, the Kd (TNF-α (Homo sapiens) [5]) is given as greater than 0.75 µM and the Kd (TGF-β1 (Homo sapiens) [6]) is given as 0.08 µM.
“glutathione-S-transferase-RAP (receptor-associated protein) (from UniProt P30533 35-357) (natural protein)” gave a percent of the cell surface binding of the frozen α2M preparations inhibited by RAP [7] of 20 to 50% and a percent of the cell surface binding of α2M inhibited by RAP (α2M in PBS/Az at -20°C; α2M in phosphate buffer with 100 mM NaCl at -20°C after rapid freezing) [7] of 20%.
